Test results as given in publication doi:10.1101/2025.01.22.634249.

Biological target: TMHC2, designed transmembrane (TM) homodimer, monomeric construct with N-terminal SpyTag and SnoopTag (wild type)
Experiment: single-molecule magnetic tweezers

increase of partial TMHC2 dimerization up to the I1 state with peptide II: 41%
percent of traces with only partial TMHC2 dimerization with 10 μM peptide: 62%
probability of complete TMHC2 dimerization with 10 μM peptide: 38%
Binder: TRTEIIRELERSL [peptide II (13-aa peptide …)]
